# “Also recorded” adds a separate entry of the source.
# T1: EpCAM (Homo sapiens, UniProt P16422)
# T1 construct: HEK293T cells were transfected with full length or EGF like-domain deletion mutant EpCAM-V5; V5; expressed in transfected cells; host or cells: HEK293T
# T1 sequence (P16422 24-314): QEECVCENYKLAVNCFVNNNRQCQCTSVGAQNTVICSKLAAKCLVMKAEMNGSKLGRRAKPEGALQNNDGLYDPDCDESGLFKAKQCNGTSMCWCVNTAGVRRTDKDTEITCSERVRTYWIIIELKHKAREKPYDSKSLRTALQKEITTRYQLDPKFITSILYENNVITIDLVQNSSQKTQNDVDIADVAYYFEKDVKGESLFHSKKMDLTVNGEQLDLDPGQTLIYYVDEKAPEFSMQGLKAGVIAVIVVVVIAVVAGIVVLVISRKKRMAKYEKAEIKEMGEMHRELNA
# Experiments:
# [1] = tested on: Wnt receptors (FZD6/7, LRP5/6); assay: Wnt receptor protein and mRNA expression (western blot, qPCR); format: cell-based, human; conditions: HT29 and HCT116 cells; overnight DAPT treatment
# Method: (§1) For western blotting, cells were extracted using radioimmunoprecipitation assay (RIPA) buffer [(0.01 M sodium phosphate, pH 7.2), 150 mM NaCl, 2 mM EDTA, 50 mM NaF, 1% Nonidet P-40, 1% sodium deoxycholate, and 0.1% SDS)] containing phosphatase inhibitor (Roche) and protease inhibitor (Roche) cocktail. Equal amounts of protein were separated by SDS-PAGE and then transferred to PVDF membranes. The membranes were blocked with 3% BSA in TBST (Blocking solution) and incubated with necessary primary antibodies in the blocking solution overnight at 4° C. Membranes were then incubated with HRP-conjugated secondary antibodies in the blocking solution for 1 h at room temperature, and protein expression were detected. Antibodies used: anti-α-tubulin (Sigma), anti-EpCAM (abeam), anti-Active β-Catenin (Millipore), anti-total β-Catenin (abeam), anti-Frizzled 6 (CST), anti-Frizzled 7 (Santa Cruz Biotech), anti-LRP5 (abcam), anti-Phospho-LRP5 (abcam), anti-Phospho-LRP6 (CST), anti-LRP6 (CST) and anti-EpEX antibody EpAb3-5 (Produced in house), anti-ADAM17 (abcam), anti-phopho-ADAM17 (abcam), anti-Presenilin2 (abcam), anti-phospho-Presenilin2 (S327) (abcam), anti-phospho-Presenilin2 (S330) (abcam) and anti-Axin2 (CST).
# Total RNA was extracted using TRI reagent and 5 μg of the total RNA was further reverse-transcribed using oligo (dT) primer with reverse transcriptase. Quantitative real time RT-PCR (qPCR) was performed on cDNA using the Light Cycler 480 SYBR Green-I Master kit and the LightCycler480 System. The gene expression levels of each sample were normalized to the expression levels of glyceraldehyde 3-phosphate dehydrogenase (GAPDH) or β-actin.
# TCF = TCF activity (TOP-Flash TCF luciferase reporter); format: cell-based, human
# Method: Cells were plated at 5×10^3 cells per well and grown overnight in 12-well plates. Then, cells were transiently transfected with TOP-Flash TCF reporter plasmid (Millipore) using poly-jet transfection reagent (SignaGen). At 48 h post transfection, cells were treated with 20 µg/mL Anti-EpCAM EpAb2-6 (Produced in house) or MT201 (Produced in house) for 6 h or 400 ng/mL LGK974 (MedChemExpress) for 9 h or the combination, as indicated. In addition, cells were treated with EpEX (Produced in house by Expi293 Expression System) or recombinant Wnt3A (R & D systems) or the combination for 8 h. Finally, cells were lysed, and the luciferase assay was performed.
# (§2) The cells were seeded in 24-well plates (1×10^4 cells/well) and incubated at 37° C. for 24 h. The culture media were refreshed, and the cells were transfected with respective reporter plasmids (TCF reporter or Wnt receptor promoter reporter) by PolyJET (SignaGen). The transfected efficiency was normalized by co-transfected with pRL-TK (20 ng) as an internal control. Additional treatments were conducted as indicated. Firefly luciferase and Renilla luminescence were measured 48 h post-transfection using the Dual-Glo Luciferase Assay System (Promega), according to the manufacturer's recommendations.
# active β-Catenin = assay: Nuclear translocation of β-Catenin (immunofluorescence staining; cell fractionation with western blot); format: cell-based, human
# Method: Cells (1×10^6) were seeded overnight and further allowed to grow in serum free conditions. Then cells were further treated with 20 μg/mL mEpAb2-6 or hEpAb2-6 or MT201 for 6 h or with 400 ng/mL LGK974 (MedChemExpress) for 9 h or combination as indicated. Samples were fractioned into cytosol and nuclear extracts using nuclear/cytosol fractionation kit (Biovision) according to the manufacturer's protocol. The fractions were then subjected to western blot analysis.
# as §1
# Glass slides were used in 24-well plates and coated with 0.1% gelatin. Further, 3×10^4 cells were seeded in serum free medium overnight. Cells were treated with 20 μg/mL EpAb2-6 for 6 h, or 400 ng/mL LGK974 (MedChemExpress) for 9 h or the combination. Cells were washed using ice-cold PBS and fixed with 4% paraformaldehyde for 15 min at RT and washed with ice-cold PBS. Further, cells were permeabilized using 0.1% triton-X in PBS for 20 min and subsequently washed with PBS. Cells were blocked with 3% BSA in PBS for 1 h at RT. Next, cells were treated with primary antibody anti-Active β-Catenin (Millipore) overnight. Then, cells were washed and treated with secondary antibody in 3% BSA containing PBS along with DAPI for 1 h at RT. Samples were then washed in PBS five times and mounted for microscopy. Nuclear β-Catenin intensities were calculated using IMARIS (Oxford Instruments) software.
# [2] = tested on: Wnt receptor promoters (LRP5, LRP6, FZD6, FZD7); assay: Wnt receptor promoter luciferase reporter assay; format: cell-based, human; conditions: cells transfected with EpCAM plasmid; overnight DAPT treatment
# Method: as §2
# The putative promoter regions of LRP5 (−1187 to +200), LRP6 (−1543 to +55), FZD6 (−1385 to +205) and FZD7 (−1285 to +116) were cloned from HeLa genomic DNA and fused to pGL4.18 plasmid (Promega, USA). The genomic DNA was extracted using a Genomic DNA Isolation Kit (NovelGene, TW) according to the manufacturer's recommendations.
# EpCAM = target: T1, EpCAM; conditions: general description of other anti-EpCAM antibodies; cited from earlier work
# [3] = tested on: colon cancer cells (SW620, HCT116); conditions: general description of other anti-EpCAM antibodies; cited from earlier work
# [4] = tested on: colon cancer cells (SW620, HCT116); assay: Annexin-V/PI apoptosis assay; format: cell-based, human; conditions: HCT116 cells; 20 μg/mL hEpAb2-6, mEpAb2-6 or MT201 for 24 hrs
# Method: Cells were seeded in 24-well plate ([…] cells per well) overnight and then treated with 20 μg/mL mEpAb2-6, hEpAb2-6 or MT201, or […] LGK974 (MedChemExpress) or the combination for 24 hrs. Cell pellets were collected, and an apoptosis assay was performed using an Annexin-V/PI apoptosis kit (BD Biosciences). Results were read by flow cytometry analysis percentage apoptotic cells was calculated.
# [5] = tested on: HCT116, HT29 and SW620 cells; assay: Tumorsphere assay; format: cell-based, human; conditions: summary statement; CRC cells; tumorsphere and colony formation
# Method: Cells were seeded in ultra-low adherent 6-well plates (5×10^4 cells per well) or 24-well plates (1×10^3 cells per well) and maintained in DMEM/F-12 supplemented with B27. Further, cells were treated with 20 μg/mL mEpAb2-6, hEpAb2-6 or MT201 (Produced in house), or 400 ng/mL LGK974 (MedChemExpress) or the combination, by direct addition to the culture medium. The entire culture medium, including the treatment component, was changed in every other day. Cells were cultured for 10 days, and on 10th day, spheres were counted and photographed under the microscope.
# [6] = wild-type HCT116 cells, DAPT with or without EpEX
molecule,measurement,setting,value
"C[C@H](NC(=O)Cc1cc(F)cc(F)c1)C(=O)N[C@H](C(=O)OC(C)(C)C)c1ccccc1 [DAPT, reference compound]",expression of Wnt receptors,[1],reduced expression of Wnt receptors
same,TCF activity,TCF; [6],marginally decreased TCF activity
same,nuclear translocation of β-Catenin,active β-Catenin; [6],decreased nuclear translocation of β-Catenin
same,Wnt receptor promoter activity,[2],almost completely blocked the effect
"edrecolomab: other anti-EpCAM antibody targeting only the EGF I domain (antibody, chains of the INN, looked up, V domains shown) VH: QVQLQQSGAELVRPGTSVKVSCKASGYAFTNYLIEWVKQRPGQGLEWIGVINPGSGGTNYNEKFKGKATLTADKSSSTAYMQLSSLTSDDSAVYFCARDGPWFAYWGQGTLVTVSA VL: NIVMTQSPKSMSMSVGERVTLTCKASENVVTYVSWYQQKPEQSPKLLIYGASNRYTGVPDRFTGSGSATDFTLTISSVQAEDLADYHCGQGYSYPYTFGGGTKLEIK",EpCAM domains bound,EpCAM,target only the well-described EGF I domain of EpCAM; also recorded: binding to domain I only
same,inducing apoptosis of cancer cells,[3],failing
"hEpAb2-6: humanized form of EpAb2-6 (antibody, V domains shown) VH: VKLQESGPELKKPGETVKISCKASGYTFTDYSMHWVKQAPGKGLKWMGWINTETGEPTYADDFKGRFAFSLETSASTAYLQINNLKNEDTATYFCARTAVYWGQGTTVTVSS VL: DIQMTQSPSSLSASLGERVSLTCRASQEISVSLSWLQQEPDGTIKRLIYATSTLDSGVPKRFSGSRSGSDYSLTISSLESEDFVDYYCLQYASYPWTFGGGTKLEIKRADAAPTVS",induction of apoptosis,[4],induces apoptosis
same,cancer stemness properties,[5],limits cancer stemness
same,TCF activity,"TCF; HT29 cells, 20 µg/mL antibody for 6 h",retained β-Catenin inhibitory activity thus related TCF activity
same,nuclear translocation of β-Catenin,"active β-Catenin; HT29 cells, 20 μg/mL hEpAb2-6 or MT201 for 6 h",retained β-Catenin inhibitory activity; also recorded: attenuates nuclear translocation of β-Catenin

# Reference: US20250129146A1, “COMBINED CANCER THERAPY WITH AN EPITHELIAL CELL ADHESION MOLECULE (EPCAM) INHIBITOR AND A WNT INHIBITOR” (ACADEMIA SINICA, priority 2021, published 2025)
